One molecule from US20230242653A1 (TENEOBIO, published 2023) can be followed below.

For one experiment, the target named is IL-21R (Sino Biological) (UniProt Q9HBE5 20-232). Description: Octet BLI off-rate analysis, antibody on AHC sensors. The protocol: (§1) All off-rate measurements were performed on an Octet Qk384 instrument (ForteBio), in 96-well microplates at 25° C. using anti-human IgG Fc capture (AHC, 18-5005) sensors with a shake speed of 1000 rpm. For off-rate determination, the antibodies were loaded on the AHC sensors at 5 µg/mL. Following a short baseline in kinetics buffer (0.02% Tween20, 0.1% BSA, 0.05% sodium azide, 1X PBS). Offrate measurements were done for the following: human IL-2Rβ (AcroBiosystems), human IL- 2Ry (Sino Biological), cynomolgus IL-2Rβ (Sino Biological), cynomolgus IL-2Rγ (expressed and purified in house using ExpiCHO expression system followed by Ni-NTA His-tag purification), mouse IL-2Rγ (Sino Biological), mouse IL-2Rβ (Sino Biological), human IL-2Rα (Sino Biological), IL-4R (Sino Biological), IL-7R (Sino Biological), IL-9R (R&D Systems) and IL-21R (Sino Biological). The following antibodies were used as positive controls to verify target binding and reagent quality: anti-human IL-9R (R&D Systems), anti-human IL-21R (R&D Systems), anti-human IL-7R (R&D Systems) and anti-human IL-4Ra (R&D Systems). The loaded sensors were then submerged in wells containing antigen at 100 nM concentration for association step. Dissociation was monitored in kinetics buffer. The capture surfaces were regenerated for 60 s. ForteBio data analysis software was used to fit the data to a 1:1 binding model to extract an association rate and dissociation rate.
IL-21R (Sino Biological), sequence (Q9HBE5 20-232 limits assumed): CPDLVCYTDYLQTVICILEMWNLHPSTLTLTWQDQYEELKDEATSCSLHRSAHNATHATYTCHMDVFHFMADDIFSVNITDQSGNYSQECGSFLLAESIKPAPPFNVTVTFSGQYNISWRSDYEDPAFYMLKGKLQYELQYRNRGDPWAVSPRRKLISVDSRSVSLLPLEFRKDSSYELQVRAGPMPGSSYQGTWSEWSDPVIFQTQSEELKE
(In BLI a coated tip is dipped into the sample, and binding shifts an interference pattern.)

Experiment [1] addresses T1, human IL-2Rα (Sino Biological) (human, UniProt P01589 22-213, limits assumed).
T1 construct: also called IL2RA; IL-2RA
T1 sequence: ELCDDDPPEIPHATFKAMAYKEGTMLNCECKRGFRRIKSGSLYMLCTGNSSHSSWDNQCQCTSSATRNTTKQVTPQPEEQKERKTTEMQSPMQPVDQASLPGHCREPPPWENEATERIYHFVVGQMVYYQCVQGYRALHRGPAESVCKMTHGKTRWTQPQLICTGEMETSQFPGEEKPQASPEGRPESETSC
Described as above. The method, then:
as §1

In the next experiment the target is T2, IL-4R (Sino Biological) (UniProt P24394 26-232).
T2 construct: also called IL-4Ra
T2 sequence (looked up): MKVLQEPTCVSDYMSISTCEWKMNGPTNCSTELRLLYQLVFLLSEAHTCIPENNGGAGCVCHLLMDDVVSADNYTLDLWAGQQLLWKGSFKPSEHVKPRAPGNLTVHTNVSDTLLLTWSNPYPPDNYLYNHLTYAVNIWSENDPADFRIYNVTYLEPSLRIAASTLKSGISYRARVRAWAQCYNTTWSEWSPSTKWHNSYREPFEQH
The description is as above. The method, then:
as §1

In another experiment the target is T3, IL-7R (Sino Biological) (UniProt P16871 21-239).
T3 sequence (looked up): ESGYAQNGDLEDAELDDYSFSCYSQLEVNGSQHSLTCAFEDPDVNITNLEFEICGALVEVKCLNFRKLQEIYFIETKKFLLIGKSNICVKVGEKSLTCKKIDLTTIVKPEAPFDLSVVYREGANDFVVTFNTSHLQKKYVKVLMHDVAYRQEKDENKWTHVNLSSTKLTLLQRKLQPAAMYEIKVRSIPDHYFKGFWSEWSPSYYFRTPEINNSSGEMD
Described as above. The method, then:
as §1

A further experiment deals with T4, IL-9R (R&D Systems) (UniProt Q01113 41-270, limits assumed).
T4 sequence (looked up): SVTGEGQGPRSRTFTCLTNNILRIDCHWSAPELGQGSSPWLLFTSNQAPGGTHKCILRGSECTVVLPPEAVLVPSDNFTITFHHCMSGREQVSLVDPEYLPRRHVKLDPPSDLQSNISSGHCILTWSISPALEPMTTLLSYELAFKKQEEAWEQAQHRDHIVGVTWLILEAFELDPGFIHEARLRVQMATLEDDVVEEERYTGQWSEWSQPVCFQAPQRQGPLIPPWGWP
The description is as above. The protocol:
as §1

The target in experiment [2] is cynomolgus IL-2Rβγ receptor (IL-2RB / IL-2RG) on cynomolgus T-cells (cynomolgus, UniProt Q38J85 27-551). Nature of the experiment: flow cytometry, cynomolgus CD8+ T-cells, anti-human IgG-PE detection, gMFI as fold over secondary-only background. The method, then:
All washes and dilutions of cells, antibodies, and reagents were performed using flow buffer (1X PBS, 1% BSA, 0.1% NaN3, pH 7.4). Staining was performed in a round-bottom 96-well plate (Corning) seeded at 100,000 cells/well and all incubations were performed at 4° C. or on ice. […] The cells were washed twice with 200 µL flow buffer. The cells were then incubated for 30 minutes with detection antibody (Goat F(ab′)2 Anti-Human IgG-PE, Southern Biotech) at 0.625 µg/mL in flow buffer. Following 2 more washes, the cells were resuspended in a final volume of 150 µL of flow buffer. The cells were analyzed on a BD FACSCelesta or a Guava easyCyte 8-HT flow cytometer. At least 3000 events were collected, and PE geometric mean fluorescence intensity was plotted as a fold over background (cells incubated with secondary detection antibody only). In some secondary screens involving human or cynomolgus PBMCs, an additional CD4 antibody (BioLegend) and/or CD8 antibody (BioLegend) was included to further characterize cell binding.

cynomolgus IL-2Rβγ receptor (IL-2RB / IL-2RG) on cynomolgus T-cells, sequence (Q38J85 27-551): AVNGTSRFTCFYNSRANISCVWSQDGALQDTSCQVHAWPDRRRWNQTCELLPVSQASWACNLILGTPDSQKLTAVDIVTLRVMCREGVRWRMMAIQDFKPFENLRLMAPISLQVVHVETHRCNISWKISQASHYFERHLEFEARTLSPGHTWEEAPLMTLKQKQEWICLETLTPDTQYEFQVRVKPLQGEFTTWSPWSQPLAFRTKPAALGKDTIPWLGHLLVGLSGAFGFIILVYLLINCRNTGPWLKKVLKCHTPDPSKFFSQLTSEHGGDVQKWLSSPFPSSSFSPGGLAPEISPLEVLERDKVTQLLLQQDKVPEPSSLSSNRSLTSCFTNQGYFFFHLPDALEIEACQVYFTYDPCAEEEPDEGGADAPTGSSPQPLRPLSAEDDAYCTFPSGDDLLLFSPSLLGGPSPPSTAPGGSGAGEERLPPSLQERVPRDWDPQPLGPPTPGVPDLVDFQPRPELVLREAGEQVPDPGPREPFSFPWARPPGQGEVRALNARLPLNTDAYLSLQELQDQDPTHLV

B1: IL2RB_F09K**IL2RG_F16B (bispecific antibody, human IgG4, V domains shown)
V domain 1: QVQLQESSPGLVKPSETLSLTCTVSGGSISSSNWWSWVRQPPGKGLEWIGEISHSGSTNYNPSLKSRVTISVDKSKNQFSLRLSSVTAADTAVYFCGRGSWELTDAFDIRGQGTLVTVSS
V domain 2: QVQLVESGGGLVKPGGSLRLSCAASGFTFSDYYMSWIRQAPGKGLEWVSYISSSGSTIYYADSVKGRFTISRDNAKNSLYLQMNSLRAEDTAVYYCARGDAVSITGDYRGQGTLVTVSS
notes: Bispecific heavy chain-only UniAb on silenced, stabilized human IgG4 Fc without CH1, knobs-into-holes; also called BsAb-5; not shown: C-terminal His-tag on the knob chain
Usually EC50 (read off the curve) stands for the concentration that produces a half-maximal response. Low values mean greater potency, high ones weaker potency. Turning to B1, the binding result (with IL-21R (Sino Biological); in experiment [1]; with IL-4R (Sino Biological); with IL-7R (Sino Biological); in the experiment with IL-9R (R&D Systems)) was “no binding (tested: 100 nM antigen)” in each case. Moreover, the “EC50 (read off the curve)” value in experiment [2] is roughly 5 nM.
